Test results: PMC8413462, “Eukaryotic Box C/D methylation machinery has two non-symmetric protein assembly sites”

Tests used:
L7Ae [1] = biological target: T1, L7Ae (Pyrococcus furiosus, UniProt Q8U160 1-123); assay: EMSA; EMSA: annealed in 10 mM Tris-HCl, 100 mM NaCl, 1 mM EDTA, pH 7.5; 4 C, 10% native PAGE; 10 pmol Cy5-RNA (~2 uM) or 0.5 nmol unlabeled RNA. RNP: 20 mM Na phospha
L7Ae [2] = biological target: T1, L7Ae; assay: EMSA; similar to snR51-kl1; EMSA: annealed in 10 mM Tris-HCl, 100 mM NaCl, 1 mM EDTA, pH 7.5; 4 C, 10% native PAGE; 10 pmol Cy5-RNA (~2 uM) or 0.5 nmol unlabeled RNA. RNP: 20 mM Na phospha
Snu13 = biological target: T2, Snu13 (Saccharomyces cerevisiae, UniProt P39990 1-126); assay: EMSA (ethidium bromide); ~100 uM RNA; EMSA: annealed in 10 mM Tris-HCl, 100 mM NaCl, 1 mM EDTA, pH 7.5; 4 C, 10% native PAGE; 10 pmol Cy5-RNA (~2 uM) or 0.5 nmol unlabeled RNA. RNP: 20 mM Na phosphate, 500 mM NaCl, pH 6.6; conditions: protein: recombinant; tags: N-terminal His6, TEV-cleaved; k-turn
T2 sequence: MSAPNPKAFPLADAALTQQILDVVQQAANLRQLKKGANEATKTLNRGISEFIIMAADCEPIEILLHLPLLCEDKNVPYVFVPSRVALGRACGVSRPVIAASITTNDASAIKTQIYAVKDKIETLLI

L7Ae [3] = biological target: T1, L7Ae; assay: EMSA; affinity not improved over snR51-kl1; EMSA: annealed in 10 mM Tris-HCl, 100 mM NaCl, 1 mM EDTA, pH 7.5; 4 C, 10% native PAGE; 10 pmol Cy5-RNA (~2 uM) or 0.5 nmol unlabeled RNA. RNP: 20 mM Na phospha
Snu13 R95VP96A [4] = biological target: T3, Snu13 R95VP96A (Saccharomyces cerevisiae, UniProt P39990 1-126, R95V;P96A); assay: EMSA; better than wild type; EMSA: annealed in 10 mM Tris-HCl, 100 mM NaCl, 1 mM EDTA, pH 7.5; 4 C, 10% native PAGE; 10 pmol Cy5-RNA (~2 uM) or 0.5 nmol unlabeled RNA. RNP: 20 mM Na phosphate, 500 mM NaCl, pH 6.6; conditions: protein: recombinant; tags: N-terminal His6, TEV-cleaved; label: 5'-Cy5; k-turn
T3 sequence: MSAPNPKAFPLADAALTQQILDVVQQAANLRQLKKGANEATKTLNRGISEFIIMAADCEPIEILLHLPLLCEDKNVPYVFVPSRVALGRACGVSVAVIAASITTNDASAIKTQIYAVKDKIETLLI

Snu13 V93IR95V [5] = biological target: T4, Snu13 V93IR95V (Saccharomyces cerevisiae, UniProt P39990 1-126, V93I;R95V); assay: as above; conditions: protein: recombinant; tags: N-terminal His6, TEV-cleaved; label: 5'-Cy5; k-turn
T4 sequence: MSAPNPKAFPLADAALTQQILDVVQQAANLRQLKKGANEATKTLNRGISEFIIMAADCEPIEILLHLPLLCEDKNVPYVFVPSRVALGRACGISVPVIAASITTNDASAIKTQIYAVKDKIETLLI

Snu13 R95VI98A = biological target: T5, Snu13 R95VI98A (Saccharomyces cerevisiae, UniProt P39990 1-126, R95V;I98A); assay: as above; conditions: protein: recombinant; tags: N-terminal His6, TEV-cleaved; label: 5'-Cy5; k-turn
T5 sequence: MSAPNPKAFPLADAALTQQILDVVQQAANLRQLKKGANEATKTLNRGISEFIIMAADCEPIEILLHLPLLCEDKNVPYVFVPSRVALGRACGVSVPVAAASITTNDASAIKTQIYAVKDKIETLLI

Snu13 R95VP96A [6] = biological target: T3, Snu13 R95VP96A; assay: EMSA; EMSA: annealed in 10 mM Tris-HCl, 100 mM NaCl, 1 mM EDTA, pH 7.5; 4 C, 10% native PAGE; 10 pmol Cy5-RNA (~2 uM) or 0.5 nmol unlabeled RNA. RNP: 20 mM Na phosphate, 500 mM NaCl, pH 6.6; conditions: protein: recombinant, tags: N-terminal His6, TEV-cleaved, label: 5'-Cy5
Snu13 V93IR95V [7] = biological target: T4, Snu13 V93IR95V; assay: as above; conditions: protein: recombinant, tags: N-terminal His6, TEV-cleaved, label: 5'-Cy5

B1: snR51-kl1 (structured_RNA)
RNA: UACUAGAUUGGUCUCUUUCAAGAAGGGGCUAAUUGAUGA
- Kd (L7Ae [1]): < 141 nM

B2: snR51-kl4 (structured_RNA)
RNA: UACGAAAUAGUUGAUGA
- binding result (L7Ae [2]): binds

B3: snR51-kl2 unlabeled (structured_RNA)
RNA: UACGAGAUUGGUCUCUUUCAAGAAGGGGCUAAUUGAUGA
- binding result (Snu13): binds

B4: snR51-kl2 (structured_RNA)
RNA: UACGAGAUUGGUCUCUUUCAAGAAGGGGCUAAUUGAUGA
- binding result (L7Ae [3]): binds
- binding result (Snu13 R95VP96A [4]): binds
- binding result (Snu13 V93IR95V [5]): binds
- binding result (Snu13 R95VI98A): binds

B5: snR54-kl1 (structured_RNA)
RNA: ACUGACUGUGAUCAAACGAUCUUGUAGA
- binding result (L7Ae [1]): no binding
- binding result (Snu13 R95VP96A [6]; non-canonical k-turn): binds
- binding result (Snu13 V93IR95V [7]; non-canonical k-turn): binds

B6: snR54-kl2 (structured_RNA)
RNA: ACUGACUGUGAUCAAACGAUCUUGAAGA
- binding result (Snu13 R95VP96A [6]): binds
- binding result (Snu13 V93IR95V [7]): binds

B7: snR51-kl3 (structured_RNA)
RNA: UACUAAAUAGUUGAUGA
- binding result (Snu13 V93IR95V [7]; k-loop): binds

B8: snR54-kl3 (structured_RNA)
RNA: ACUGAAAUAGUUGUAGA
- binding result (Snu13 V93IR95V [7]; k-loop): binds
